In patent US20260232824A1 (published 2026):
Each block holds one binder with its values, some of them ahead of it.

Experiments:
Test in all cases: SPR; antibody captured in bivalent format
[1] = target: T1, human CD180 extracellular domain (ECD) HIS-tagged protein (Sino Biological, 11370-H08H) (human, UniProt Q99467 24-626)
T1 chain: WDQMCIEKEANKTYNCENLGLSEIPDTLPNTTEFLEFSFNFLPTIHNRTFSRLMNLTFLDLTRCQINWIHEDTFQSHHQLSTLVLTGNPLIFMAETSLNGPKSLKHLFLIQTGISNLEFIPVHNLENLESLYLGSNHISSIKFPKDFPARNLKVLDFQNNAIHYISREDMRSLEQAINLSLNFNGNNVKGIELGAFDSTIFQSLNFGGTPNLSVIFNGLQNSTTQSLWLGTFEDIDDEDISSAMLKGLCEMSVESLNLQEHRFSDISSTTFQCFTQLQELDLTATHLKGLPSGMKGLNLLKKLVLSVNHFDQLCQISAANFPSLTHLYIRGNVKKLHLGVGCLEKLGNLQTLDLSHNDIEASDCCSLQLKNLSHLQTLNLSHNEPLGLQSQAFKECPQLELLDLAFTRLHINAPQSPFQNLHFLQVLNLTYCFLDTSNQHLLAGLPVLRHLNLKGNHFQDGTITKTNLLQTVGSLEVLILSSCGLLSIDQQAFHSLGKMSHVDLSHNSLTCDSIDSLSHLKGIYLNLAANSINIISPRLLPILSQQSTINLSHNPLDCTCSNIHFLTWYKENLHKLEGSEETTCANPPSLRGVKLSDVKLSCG

[2] = target: T2, human CD180 extracellular domain (ECD) HIS-tagged protein (Creative Biomart, CD180-3900H) (human, UniProt Q99467 24-626)
T2 chain: T1 chain

[3] = target: T3, His-tagged rhesus CD180 from Creative Biomart (CD180-1598R) (rhesus, UniProt F7GX75 24-626)
T3 chain: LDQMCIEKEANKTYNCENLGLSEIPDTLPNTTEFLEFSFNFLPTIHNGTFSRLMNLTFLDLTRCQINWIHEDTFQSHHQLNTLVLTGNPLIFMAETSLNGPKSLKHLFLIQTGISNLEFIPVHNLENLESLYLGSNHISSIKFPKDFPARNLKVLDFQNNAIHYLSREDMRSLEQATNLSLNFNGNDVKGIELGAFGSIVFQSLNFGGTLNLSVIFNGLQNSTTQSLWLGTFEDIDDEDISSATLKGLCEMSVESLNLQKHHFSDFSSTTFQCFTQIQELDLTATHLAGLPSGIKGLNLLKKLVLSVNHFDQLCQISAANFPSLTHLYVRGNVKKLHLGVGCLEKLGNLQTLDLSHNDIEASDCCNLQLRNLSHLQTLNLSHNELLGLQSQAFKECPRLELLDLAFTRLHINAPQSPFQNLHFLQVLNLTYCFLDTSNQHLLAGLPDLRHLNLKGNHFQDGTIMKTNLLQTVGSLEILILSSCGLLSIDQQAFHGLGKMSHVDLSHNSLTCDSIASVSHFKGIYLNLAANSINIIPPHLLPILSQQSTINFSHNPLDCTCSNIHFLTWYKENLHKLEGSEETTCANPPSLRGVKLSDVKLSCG

Kd [1]: 3.4 nM
Kd [2]: 4.7 nM
Kd [3]: 0.05 nM
B1: Ab-007 (antibody, V domains shown)
VH: EVQLVESGGGVVRPGGSLRLSCAASGFTFDDYAMSWVRQAPGKGLEWVSDINWNGGTTSYADSVKGRFTISRDNAKNSLFLQMNSLRAEDTALYYCARKGRDTVVVKGYYYFSYYMDVWGKGSTVTVSS
VL: not shown

Kd [1]: 6.8 nM
Kd [2]: 12 nM
Kd [3]: 0.4 nM
B2: Ab-006 (antibody, V domains shown)
VH: EVQLVESGGGLVKPGGSLRLSCTASGFTFDDYDMTWVRQAPGKGLEWVSGINWNGGNTDYADSVKGRFTISRDNTKNSLYLQMNSLRAEDTALYYCARKGRDIVVVKGFYYHYYYMDVWGKGITVTVSS
VL: not shown
